Test results reported in patent US20070244297A1.
Read-outs that look alike come from different tables or passages of the source.

Columns and labels:
[1] = target: T1, recombinant human neuronal calcium channel α1B-1α2bβ1-2 (human), Q00975
[2] = target: T2, recombinant human neuronal calcium channel α1B-1α2b (human); assay: 125I-ω-CgTx GVIA saturation binding to transiently transfected HEK293 cells
[3] = target: recombinant human neuronal calcium channel α1B-1β1-3 (human), Q00975; assay: as above
[4] = target: T1, recombinant human neuronal calcium …; assay: as above
[5] = target: recombinant human neuronal calcium channel α1B-2β1-3 (human), Q00975; assay: as above
[6] = target: recombinant human neuronal calcium channel α1B-1β1-2 (human), Q00975; assay: as above
[7] = target: recombinant human neuronal calcium channel α1B-2β1-2 (human), Q00975; assay: as above
[8] = target: recombinant human neuronal calcium channel α1B-2α2bβ1-2 (human); assay: as above
[9] = target: recombinant human neuronal calcium channel α1B-1α2bβ1-3 (human); assay: as above
[10] = target: recombinant human neuronal calcium channel α1B-2α2bβ1-3 (human), Q00975; assay: as above
[11] = target: T2, recombinant human neuronal calcium …
[12] = target: human neuronal calcium channel α1B-1 subunit (expressed alone) (human), Q00975

B1: ω-CgTx, P01522 46-73 (peptide)
peptide: CKSPGSSCSPTSYNCCRSCNPYTKRCYG
modifications: not checked
- Kd [1]: 0.0546 nM
- binding capacity (Bmax) (sites per cell) [1]: 28700

B2: 125I-ω-CgTx GVIA, P01522 46-73 (peptide)
peptide: CKSPGSSCSPTSYNCCRSCNPYTKRCYG
modifications: not checked
- fold change of binding capacity against α1B-1 alone [2]: 3 fold
- Bmax [3]: 8730 sites/cell
- Kd [3]: 0.0179 nM
- fold change of surface binding against α1B-1 alone [3]: 10 fold
- Bmax [4]: 45300 sites/cell
- Kd [4]: 0.0549 nM
- fold change of binding sites per cell against α1B-2α2bβ1-2 [4]: 2.5 fold
- fold change of surface receptor density against α1B-1β1-2 [4]: 8 fold
- Bmax [5]: 2940 sites/cell
- Kd [5]: 0.0222 nM
- Bmax [6]: 5760 sites/cell
- Kd [6]: 0.0179 nM
- fold change of surface binding against α1B-1 alone [6]: 8 fold
- Bmax [7]: 2130 sites/cell
- Kd [7]: 0.0164 nM
- Bmax [8]: 19400 sites/cell
- Kd [8]: 0.053 nM
- fold change of surface receptor density against α1B-2β1-2 [8]: 9 fold
- Bmax [9]: 91000 sites/cell
- Kd [9]: 0.0532 nM
- fold change of binding capacity against α1B-1α2bβ1-2 [9]: 2 fold
- fold change of binding sites per cell against α1B-2α2bβ1-3 [9]: 2.5 fold
- fold change of surface receptor density against α1B-1β1-3 [9]: 10 fold
- Bmax [10]: 37700 sites/cell
- Kd [10]: 0.0443 nM
- fold change of binding capacity against α1B-2α2bβ1-2 [10]: 2 fold
- fold change of surface receptor density against α1B-2β1-3 [10]: 13 fold
- Bmax [11]: 2260 sites/cell
- Kd [11]: 0.0846 nM
- Bmax [12]: 757 sites/cell
- Kd [12]: 0.0317 nM
